Reference: the RNAGym collection of RNA variant scans (doi:10.1073/pnas.2313332121)
Variants at the floor of the assay were thinned out.

B1: TPR 5TU (parent)
chain: GGAUCUUCUCGAUCUAACAAAAAAGACAAAUCUGCCACAAAGCUUGAGAGCAUCUUCGGAUGCAGAGGCGGCAGCCUUCGGUGGCGCGAUAGCGCCAACGUUCUCAACUAUGACACGCAAAACGCGUGCUCCGUUGAAUGGAGUUUAUCAUG

Variants of: B1
Assay: polymerase ribozyme fitness, log enrichment relative to wild type (log ratio); higher = more active; in vitro selection for triplet polymerase activity
How it was run: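 Streptavidin-bead capture of gel-excised extended constructs, followed by RT-PCR, closed a single triplicate in vitro selection round. That round began by annealing PCR-built, transcribed mutant libraries of each subunit of a heterodimeric triplet polymerase ribozyme with a biotinylated primer, the partner subunit and triplets, then incubating them frozen at −7 °C. After Illumina sequencing of inputs and outputs, genotypes needed ≥10 input reads and ≥1 read per output. Fitness is the base-2 logarithm of genotype enrichment over wild-type enrichment, using inverse-variance-weighted replicate averages.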

Variant	polymerase ribozyme fitness (log ratio)
C38G G133C A147C	-2.55
A39G A97U	-2.96
C38U G62U C96G	-1.8
C38U A52G A73U G152U	-4.12
C38U C85U C95G C105A	-3.93
A37U G68U C118A	≤ -4.2
A37U G84A U102C C123G	-4.19
C38A G94A C123U	-0.611
C38U A121C G136C A138U U148G	≤ -4.2
C38G G140C	-4.11
C38U C69A U82A G94U	-3.99
A39G C51U A52U G74A	≤ -4.2
C38U U53A C105U	0.169
A39G A137G	-3.57
A39G A91G A137G	≤ -4.2
C38U G50A U77C C87G	≤ -4.2
A39C A52G G70A C99G G100A U144A	≤ -4.2
A39C U44G C75U C95U A119U G128U	≤ -4.2
A39C A40C G70C G88C U109C	≤ -4.2
A37U U78G U90C U101G U104G	≤ -4.2
A39G C105G	-3.19

Variant	polymerase ribozyme fitness (log ratio)
C38U A39C A60U	-3.28
C38U C95A C108U	-3.39
C38A A73C C75G A120C	≤ -4.2
A37U G83C A91C A98G G124U	≤ -4.2
A39C U82G G83C G133C	≤ -4.2
C38G C54G U82C U146A	-1.88
A39C C54G C93A	≤ -4.2
C38A U56G C93G C95A	≤ -4.2
C38U G84U C87G U144C C149G	≤ -4.2
C38A A40U G48U C87G C99U G124A G140C	≤ -4.2
A39C G81C C85U C116A G141C	≤ -4.2
A39G G42A	-3.64
A37U U77G C96A A106G	≤ -4.2
C38A U53A A60U C93G C131A G141C	-3.94
A39G C63G G70C C87U A91G C99A A120G	≤ -4.2
C38U A73G C87U	0.139
C38A C87A	≤ -4.2
C38A C54U A73U	-2.15
C38U C85U C105U C123G	0.319
A39C U55A C118U	-2.2
C38U C87U A115U C125U	-3.34

Variant	polymerase ribozyme fitness (log ratio)
C38G C123A	-0.288
C38U A107C	-3.45
C38U A47C A64C U78G G84C A97C C108U	≤ -4.2
A39C A47C G62A C85U A98U U134A	≤ -4.2
A39C G65C G83C G143A A150U	≤ -4.2
C38U U55C A64U G94A C103A C125U	≤ -4.2
A39C C85U C149U	-2.98
C38G A52G G62A U135G	≤ -4.2
A39C C54A G65C C93A G124U A138C	≤ -4.2
A39G G42A G48C A49C G83U C87G C96A A107U	≤ -4.2
C38G G42C U61G G86U	≤ -4.2
A39C A47U	-2.53
A39C G62A A66U U134G G143A	≤ -4.2
C38A C118U A120C G141A	-0.525
C38U C57A G143C	-2.41
C38A U55A G94U C99G	-3.88
A39G C57A C87U	-1.73
C38U U61G G92U C116G G140A U144C	≤ -4.2
C38U G86U	-1.57
C38U G86A	-1.16
C38U G48C G92A A142C G143U	≤ -4.2

Variant	polymerase ribozyme fitness (log ratio)
A39C U56A G59C	-2.08
C38G C54A G74U A106U G140U	≤ -4.2
C38U A60C U77G C87U G94A U101A C105A	≤ -4.2
C38G G80C C99G C116U	-0.78
A39G C75U C85U	-3.44
C38U C79U A121U C125A G143U	-3.92
C38U C96G G152U	-3.85
A39C C85A C118A	-3.96
C38U G50A A52U G68U G80A A97G A137U	≤ -4.2
C38A C93A	-2.59
A39C A64C C93U	≤ -4.2
C38U U45A G84U C129A A142C	≤ -4.2
A39G C54A A91G G94A	≤ -4.2
C38U U82C C85U U90G C99U C105U C108G A120G	≤ -4.2
C38A U55A	-0.143
A39C U56G A73G	-3.36
C38U A89G	-1.07
C38A U56A G86C	-3.01
C38G C85U A89C	-1.86
C38G U56A C93U U104G A122C	-2.96
C38U A49C C85U G92U C103A U111C U144C	≤ -4.2
